In patent US20150086555A1:

Tests used:
Settings in all cases: remark: other sources report otherwise
[1] = target: recombinant soluble homotrimeric HA of A/Anhui/1/05 (H5N1) (Influenza A virus A/Anhui/1/2005(H5N1)); test: HA microarray, BCC supernatant
[2] = target: recombinant soluble homotrimeric HA of A/California/4/09 (H1N1) (Influenza A virus A/California/04/2009(H1N1)); test: HA microarray, BCC supernatant
[3] = target: recombinant soluble homotrimeric HA of A/Indonesia/5/05 (H5N1) (Influenza A virus A/Indonesia/5/2005(H5N1)); test: HA microarray, BCC supernatant
[4] = target: recombinant soluble homotrimeric HA of A/Japan/305/57 (H2N2) (Influenza A virus A/Japan/305/1957(H2N2)); test: HA microarray, BCC supernatant
[5] = target: recombinant soluble homotrimeric HA of A/Netherlands/219/03 (H7N7) (Influenza A virus A/Netherlands/219/03(H7N7)); test: HA microarray, BCC supernatant
[6] = target: recombinant soluble homotrimeric HA of A/Solomon Islands/3/06 (H1N1) (Influenza A virus A/Solomon Islands/3/2006(H1N1)); test: HA microarray, BCC supernatant
[7] = target: recombinant soluble homotrimeric HA of A/Vietnam/1203/04 (H5N1) (Influenza A virus A/VietNam/1203/2004(H5N1)); test: HA microarray, BCC supernatant
[8] = target: recombinant soluble homotrimeric HA of A/Wisconsin/67/05 (H3N2) (Influenza A virus A/Wisconsin/67/2005(H3N2)); test: HA microarray, BCC supernatant
[9] = target: recombinant soluble homotrimeric HA of A/chicken/Vietnam/NCVD-016/08 (H5N1) (Influenza A virus A/chicken/Vietnam/NCVD-016/2008(H5N1)); test: HA microarray, BCC supernatant
[10] = target: recombinant soluble homotrimeric HA of A/duck/Yangzhou/02/05 (H8N4) (Influenza A virus A/duck/Yangzhou/02/2005(H8N4)); test: HA microarray, BCC supernatant
[11] = target: recombinant soluble homotrimeric HA of A/northern shoveler/California/HKWF115/07 (H6) (Influenza A virus A/northern shoveler/California/HKWF115/2007(H6N1)); test: HA microarray, BCC supernatant
[12] = target: recombinant homotrimeric HA A/Anhui/1/05 H5N1 (Influenza A virus A/Anhui/1/2005(H5N1)); test: protein microarray, purified IgG, trimeric HA
[13] = target: recombinant homotrimeric HA A/California/4/09 H1N1 (Influenza A virus A/California/04/2009(H1N1)); test: protein microarray, purified IgG, trimeric HA
[14] = target: recombinant homotrimeric HA A/Egypt/3300-NAMRU3/08 H5N1 (Influenza A virus A/Egypt/3300-NAMRU3/2008(H5N1)); test: protein microarray, purified IgG, trimeric HA
[15] = target: recombinant homotrimeric HA A/Hong Kong/1073/99 H9N2 (Influenza A virus A/Hong Kong/1073/99 (H9N2)); test: protein microarray, purified IgG, trimeric HA
[16] = target: recombinant homotrimeric HA A/Hong Kong/156/97 H5N1 (Influenza A virus A/Hong Kong/156/97 (H5N1)); test: protein microarray, purified IgG, trimeric HA
[17] = target: recombinant homotrimeric HA A/Hong Kong/2108/03 H9N2 (Influenza A virus A/HK/2108/2003(H9N2)); test: protein microarray, purified IgG, trimeric HA
[18] = target: recombinant homotrimeric HA A/Indonesia/5/05 H5N1 (Influenza A virus A/Indonesia/5/2005(H5N1)); test: protein microarray, purified IgG, trimeric HA
[19] = target: recombinant homotrimeric HA A/Japan/305/57 H2N2 (Influenza A virus A/Japan/305/1957(H2N2)); test: protein microarray, purified IgG, trimeric HA
[20] = target: recombinant homotrimeric HA A/Netherlands/219/03 H7N7 (Influenza A virus A/Netherlands/219/03(H7N7)); test: protein microarray, purified IgG, trimeric HA
[21] = target: recombinant homotrimeric HA A/Solomon Islands/3/06 H1N1 (Influenza A virus A/Solomon Islands/3/2006(H1N1)); test: protein microarray, purified IgG, trimeric HA
[22] = target: recombinant homotrimeric HA A/South Carolina/1/18 H1N1 (Influenza A virus A/South Carolina/1/18 (H1N1)); test: protein microarray, purified IgG, trimeric HA
[23] = target: recombinant homotrimeric HA A/Vietnam/1203/04 H5N1 (Influenza A virus A/VietNam/1203/2004(H5N1)); test: protein microarray, purified IgG, trimeric HA
[24] = target: recombinant homotrimeric HA A/Wisconsin/67/05 H3N2 (Influenza A virus A/Wisconsin/67/2005(H3N2)); test: protein microarray, purified IgG, trimeric HA
[25] = target: recombinant homotrimeric HA A/chicken/Vietnam/NCVD-016/08 H5N1 (Influenza A virus A/chicken/Vietnam/NCVD-016/2008(H5N1)); test: protein microarray, purified IgG, trimeric HA
[26] = target: recombinant homotrimeric HA A/northern shoveler/California/HKWF115/07 H6N4 (Influenza A virus A/northern shoveler/California/HKWF115/2007(H6N1)); test: protein microarray, purified IgG, trimeric HA
[27] = target: recombinant soluble homotrimeric HA of A/swine/Ontario/01911-2/99 (H4N6) (Influenza A virus A/Swine/Ontario/01911-2/99 (H4N6)); test: HA microarray, BCC supernatant

| Binder | Trimeric HA Binding: RLU [1] | Trimeric HA Binding: RLU [2] | Trimeric HA Binding: RLU [3] | Trimeric HA Binding: RLU [4] | Trimeric HA Binding: RLU [5] | Trimeric HA Binding: RLU [6] | Trimeric HA Binding: RLU [7] | Trimeric HA Binding: RLU [8] | Trimeric HA Binding: RLU [9] | Trimeric HA Binding: RLU [10] | Trimeric HA Binding: RLU [11] | Trimeric HA Binding: RLU [12] | Trimeric HA Binding: RLU [13] | Trimeric HA Binding: RLU [16] | Trimeric HA Binding: RLU [17] | Trimeric HA Binding: RLU [19] | Trimeric HA Binding: RLU [20] | Trimeric HA Binding: RLU [21] | Trimeric HA Binding: RLU [22] | Trimeric HA Binding: RLU [23] | also measured |
| --- | --- | --- | --- | --- | --- | --- | --- | --- | --- | --- | --- | --- | --- | --- | --- | --- | --- | --- | --- | --- | --- |
| TCN-555 (5246_L16) (antibody, V domains shown) VH: QVQLVQSGAEVKRPGSSVKVSCTASGGIFRKNAISWVRQAPGQGLEWMGGIIAVFNTANYAQKFQNRVKITADESGNTAYMELSSLTSDDTAVYYCASHPKYFYGSGSYPDFWGQGTLVTVSS VL: QSALTQPRSVSGSPGQSITISCTGGSSDIGASNSVSWYQQHPGKAPKLVIFDVTERPSGVPHRFSGSKSGNTASLTVSGLQPDDEADYFCCAYGGKYLVVFGGGTKVTVL | 1500 RLU | 44900 RLU | 34500 RLU | 2130 RLU | 3400 RLU | 26400 RLU | 876 RLU | 9800 RLU | 22300 RLU | 18400 RLU | 49500 RLU | 6630 RLU | 25500 RLU | 13100 RLU | 302 RLU | 10700 RLU | 1330 RLU | 17900 RLU | 13700 RLU | 26500 RLU | Trimeric HA Binding: RLU [14]: 20200 RLU; Trimeric HA Binding: RLU [15]: 3440 RLU; Trimeric HA Binding: RLU [18]: 15600 RLU; Trimeric HA Binding: RLU [24]: 369 RLU; Trimeric HA Binding: RLU [25]: 4420 RLU; Trimeric HA Binding: RLU [26]: 15600 RLU |
| TCN-563 (5237_B21) (antibody, V domains shown) VH: QVQLAQSGAEVKRPGSSVKVSCTASGGIFRKNAISWVRQAPGQGLEWMGGIIAVFNTANYAQKFQGRVKITADESGNTAYMELSSLRSDDTAVYYCASHPKYFYGSGSYPDFWGQGTLVTVSS VL: QSALTQPRSVSGSPGQSVTISCTGSSSDVGASNSVSWYQQHPGKAPKLVIYDVTERPSGVPHRFSGSKSGNTASLTVSGLQPEDEADYFCCAYGGKYLVVFGGGTKVTVL | 9580 RLU | 45200 RLU | 39500 RLU | 6610 RLU | 7520 RLU | 30000 RLU | 4840 RLU | 40800 RLU | 41000 RLU | 46700 RLU | 27300 RLU | – | – | – | – | – | – | – | – | – | Trimeric HA Binding: RLU [27]: 4500 RLU |
| TCN-539 (5056_A08) (antibody, V domains shown) VH: QVQLVESGGGVVQPGRSLRLSCAASEITFITYAMHWVRQAPGKGLEWVALISDDGSNKFYADSVKGRFTISRDNSKNTLYLQMNSLRAEDTAAYYCAREGVYFDSGTYRGYFDYWGQETLVTVSS VL: EIVLTQSPATLSLSPGERATLSCRASQSVSSYLAWYQQKPGQAPRLLIYDASNRATGIPARFSGSGSGTDFTLTISSLEPEDFAVYYCQQRSHWPPITFGQGTRLEIK | 91 RLU | – | – | 468 RLU | 1700 RLU | 239 RLU | 545 RLU | 715 RLU | 100 RLU | – | 814 RLU | 570 RLU | 129 RLU | 103 RLU | 140 RLU | 544 RLU | 161 RLU | 1060 RLU | 60 RLU | 636 RLU | Trimeric HA Binding: RLU [27]: 1580 RLU; Trimeric HA Binding: RLU [15]: 416 RLU; Trimeric HA Binding: RLU [24]: 8850 RLU; Trimeric HA Binding: RLU [25]: 144 RLU; Trimeric HA Binding: RLU [26]: 124 RLU |
| TCN-552 (5249_I23) (antibody, V domains shown) VH: QVQVVQSGAEVKKPGSSVRVSCQASGGTFMNYAIIWVRRAPGQGLEWMGGIIPVFPTPNYAQMFQGRVTISTDESRSTSFLELTNLRYEDTAVYYCARRIYHGGNSGFDFWGQGTLVTVSS VL: EIVLTQSPATLSLSPGERATLSCRASQSVGNYLAWYQQKPGQAPRLLIYDSSNRAPGIPARFSGSGSGTDFTLTISSLAPEDFAVYYCQQRSKWPPMYSFGHGTKLEIK | 4160 RLU | 35300 RLU | 43600 RLU | 23800 RLU | 1240 RLU | 39300 RLU | 2730 RLU | 14800 RLU | 46200 RLU | 13100 RLU | 38400 RLU | 4520 RLU | 23900 RLU | 16200 RLU | 161 RLU | 24700 RLU | 470 RLU | 19400 RLU | 14200 RLU | 27000 RLU | Trimeric HA Binding: RLU [14]: 20300 RLU; Trimeric HA Binding: RLU [18]: 23600 RLU; Trimeric HA Binding: RLU [24]: 123 RLU; Trimeric HA Binding: RLU [25]: 4300 RLU; Trimeric HA Binding: RLU [26]: 8970 RLU |
| TCN-553 (5261_C18) (antibody, V domains shown) VH: QVQVVQSGTEVKKPGSSVKVSCQTSGGRFMSYAITWVRQAPGQGLEWMGGIVPVFGTANYAQKFQGRVTITTDDSTRTAYMELSSLRSEDTAVYYCGFRYGSGYGFDSWGQGTLVTVSS VL: EIVLTQSPGTLSLSPGERATLSCRASQSVSSSYLAWYQKKPGQAPRLLIYGASTRATGIPDRFTGSGSGTDFTLSISRLEPEDFAVYYCQHFGTSVFTFGGGTKVEIK | 12600 RLU | 20300 RLU | 24400 RLU | 25500 RLU | 1840 RLU | 16300 RLU | 6560 RLU | 20000 RLU | 24200 RLU | 28000 RLU | 21700 RLU | 9030 RLU | 25100 RLU | 24000 RLU | 172 RLU | 25700 RLU | 499 RLU | 24600 RLU | 20600 RLU | 27200 RLU | Trimeric HA Binding: RLU [27]: 2580 RLU; Trimeric HA Binding: RLU [14]: 24600 RLU; Trimeric HA Binding: RLU [15]: 6690 RLU; Trimeric HA Binding: RLU [18]: 26000 RLU; Trimeric HA Binding: RLU [24]: 197 RLU; Trimeric HA Binding: RLU [25]: 12400 RLU; Trimeric HA Binding: RLU [26]: 20200 RLU |
